A word on the Kd: it is the equilibrium constant for the complex coming apart. Read a low Kd as higher affinity.

Here are results for 2 molecules from US20240158512A1 (TRUEBINDING, published 2024).

One assay deals with T1, Galectin-3 (UniProt P17931 1-250, limits assumed).
T1 construct: Target of the anti-Gal3 antibody TB006; also called Gal3; GAL3
Description: BLI (Binding Activity); accelerated stability 25 C/60% RH, 3 months.

Another assay concerns the target T2, Galectin-3 (Gal3) (UniProt P17931 1-250, limits assumed).
T2 construct: Target of TB006
Description: BLI; 50 mg/mL DS after -80 C for 9 months. A general note: BLI is a label-free optical method that tracks binding on a fibre tip over time.

T1 sequence (P17931 whole entry): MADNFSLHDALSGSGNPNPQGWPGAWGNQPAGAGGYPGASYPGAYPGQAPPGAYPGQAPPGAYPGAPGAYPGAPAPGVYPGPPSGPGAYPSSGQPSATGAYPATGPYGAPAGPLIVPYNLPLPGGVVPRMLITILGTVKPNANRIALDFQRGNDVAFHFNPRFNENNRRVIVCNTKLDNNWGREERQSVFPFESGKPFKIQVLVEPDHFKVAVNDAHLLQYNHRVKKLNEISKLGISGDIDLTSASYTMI
T2 sequence (P17931 whole entry): as above

B1: TB006 (antibody, human IgG4 S228P, kappa, V domains shown)
VH: QVQLVQSGAEVKKPGASVKVSCKASGYSFTNYYMHWVRQAPGQRLEWMGWIYPGSGNTNYNEKFQGRVTITADTSASTAYMELSSLRSEDTAVYYCSTAPGGFDVWGQGTTVTVSS
VL: DIVMTQTPLSLSVTPGQPASISCKSSKSLLHSDGITYLYWYLQKPGQSPQLLIYRMSNLASGVPDRFSGSGSGTDFTLKISRVEAEDVGVYYCAQMLEFPLTFGQGTKLEIKR
notes: Tested as formulated drug substance or drug product in 20 mM L-histidine, 5 mM methionine, 100 mM NaCl, 0.02% polysorbate 80, pH 5.8, or diluted in 0.9% saline; also called 4A11.H3L1; IMT006a
The molecule B1 displayed a dissociation constant Kd with Galectin-3 of 3.1 nM.

B2: TB006 (antibody, human IgG4 S228P, kappa, V domains shown)
VH: QVQLVQSGAEVKKPGASVKVSCKASGYSFTNYYMHWVRQAPGQRLEWMGWIYPGSGNTNYNEKFQGRVTITADTSASTAYMELSSLRSEDTAVYYCSTAPGGFDVWGQGTTVTVSS
VL: DIVMTQTPLSLSVTPGQPASISCKSSKSLLHSDGITYLYWYLQKPGQSPQLLIYRMSNLASGVPDRFSGSGSGTDFTLKISRVEAEDVGVYYCAQMLEFPLTFGQGTKLEIKR
notes: Full antibody tested as drug substance (DS) in 20 mM L-histidine, 5 mM methionine, 100 mM NaCl, 0.02% polysorbate-80, pH 5.8; also called 4A11.H3L1; IMT006a
As to B2, binding in the assay with Galectin-3 (Gal3) was put at a Kd of 2.8 nM.
